Laboratory results taken from patent US20210340205A1 (Novartis, published 2021).
Values belong to the binder of their own block, whether it stands above or below them.

Target: T1, Human cRET(ECD)-Fc (human)
T1 construct: also called RET-Fc
Assay: MSD plate assay, cRET(ECD)-Fc coated; biotinylated anti-6xHis mAb and streptavidin sulfo-tag
Experimental: Methods: To generate soluble GDF15/GFRAL complexes in vitro, recombinant GFRAL(D2D3)-App, GFRAL(ECD)-His, and GFRAL(ECD)-Fc proteins purified in Example 1 were freshly mixed with equimolar amounts of biotinylated His-GDF15 (1250 pM) in DPBS supplemented with 50 μM CaCl₂. The mixtures were incubated at room temperature for 60 min to allow complex formation. The complex made was stable at 4° C. and was used directly for in vitro binding assays against cRET(ECD)-Fc coated on plastic plates without further purification. Three different GDF15/GFRAL ECD complexes were prepared, including His-GDF15(biotin)/GFRAL(D2D3)-App, His-GDF15(biotin)/GFRAL (ECD)-His, and His-GDF15(biotin)/GFRAL (ECD)-Fc in the same manner. […] His-GDF15(L294R) was mixed with GFRAL(ECD)-His to generate a negative control for GDF15/GFRAL/cRET interaction. […]
Methods: Mixtures of purified biotinylated His-GDF15 and GFRAL(ECD)-His or His-GDF15(L294R) and GFRAL(ECD)-His were prepared as described in Example 3. […] Binding of proteins to plates coated with cRET(ECD)-Fc was detected using biotinylated mouse anti-6×His tag monoclonal antibody followed by streptavidin sulfo-tag, and otherwise by methods described in Example 3.

T1 sequence (chain, as listed by the source): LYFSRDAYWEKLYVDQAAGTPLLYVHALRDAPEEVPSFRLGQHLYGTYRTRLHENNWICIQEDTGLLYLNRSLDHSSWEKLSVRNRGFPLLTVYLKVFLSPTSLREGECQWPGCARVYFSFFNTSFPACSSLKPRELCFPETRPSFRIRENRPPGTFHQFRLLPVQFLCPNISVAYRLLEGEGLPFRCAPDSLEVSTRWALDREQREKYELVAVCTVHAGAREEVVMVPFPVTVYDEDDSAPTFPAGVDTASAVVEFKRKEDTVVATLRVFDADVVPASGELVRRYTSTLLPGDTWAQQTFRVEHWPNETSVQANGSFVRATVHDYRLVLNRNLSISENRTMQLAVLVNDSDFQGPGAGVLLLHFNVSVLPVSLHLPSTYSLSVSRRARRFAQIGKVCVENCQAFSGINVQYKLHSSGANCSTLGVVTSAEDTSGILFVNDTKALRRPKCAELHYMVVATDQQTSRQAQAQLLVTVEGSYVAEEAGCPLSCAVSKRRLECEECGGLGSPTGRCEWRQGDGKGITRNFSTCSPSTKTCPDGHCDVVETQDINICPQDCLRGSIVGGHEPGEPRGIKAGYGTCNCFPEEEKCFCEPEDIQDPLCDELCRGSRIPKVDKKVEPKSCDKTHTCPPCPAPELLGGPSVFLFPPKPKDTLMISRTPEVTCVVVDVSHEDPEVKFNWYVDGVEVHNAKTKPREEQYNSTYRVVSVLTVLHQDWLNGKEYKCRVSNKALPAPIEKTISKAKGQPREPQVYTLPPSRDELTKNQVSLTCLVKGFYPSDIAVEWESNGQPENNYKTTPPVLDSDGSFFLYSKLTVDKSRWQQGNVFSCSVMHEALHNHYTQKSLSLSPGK

- binding result: no binding (tested: 0-5 log 10 pM)
B1: His-GDF15(L294R)/GFRAL(ECD)-His mixture (other)
chain 1: HHHHHHGSGGARNGDHCPLGPGRCCRLHTVRASLEDLGWADWVLSPREVQVTMCIGACPSQFRAANMHAQIKTSLHRLKPDTVPAPCCVPASYNPMVLIQKTDTGVSRQTYDDLLAKDCHCI
chain 2: QTNNCTYLREQCLRDANGCKHAWRVMEDACNDSDPGDPCKMRNSSYCNLSIQYLVESNFQFKECLCTDDFYCTVNKLLGKKCINKSDNVKEDKFKWNLTTRSHHGFKGMWSCLEVAEACVGDVVCNAQLASYLKACSANGNPCDLKQCQAAIRFFYQNIPFNIAQMLAFCDCAQSDIPCQQSKEALHSKTCAVNMVPPPTCLSVIRSCQNDELCRRHYRTFQSKCWQRVTRKCHEDENCISTLSKQDLTCSGSDDCKAAYIDILGTVLQVQCTCRTITQSEESLCKIFQHMLHRKSCFNYPTLSNVKGMALYTRKHANKITLTGFHSPFNGEGSHHHHHH

- binding result: no binding (tested: 0-5 log 10 pM)
B2: His-GDF15(L294R) (ligand)
chain: B1 chain 1
notes: Non-functional mutant, prepared in the same way as wild-type His-GDF15 (E. coli, see US 2017/204149); also called His-GDF15(L294R) mutant
